Experimental data published in patent US20160340659A1, “ACTIN BINDING PEPTIDES AND COMPOSITIONS COMPRISING SAME FOR INHIBITING ANGIOGENESIS AND TREATING MEDICAL CONDITIONS ASSOCIATED WITH SAME” (YISSUM RESEARCH AND DEVELOPMENT COMPANY OF THE HEBREW …, priority 2014, published 2016).
Entries after “also recorded” stand apart in the source; their conditions may differ.

Tests used:
[1] = test system: chick Chorio-Allantoic Membrane (CAM); assay: Ex ovo CAM angiogenesis assay; type: in vivo, chicken; settings: 3 μg on paper disk daily for four days from day 8; compared to PBS control
Description: In this assay, in-vivo angiogenesis is assessed on live chick embryos grown in petri dishes. Fertilized eggs are cracked into a petri dish after a few (e.g. 3) days incubation at appropriate temperature (e.g. 37° C.) and humidity. In the following days, the embryos developed a vascular network, which can then easily be exposed to any treatment or combination of treatments, for example, via delivery onto absorbent disks placed on/about the developing vascular regions. Angiogenesis is scored by periodically (e.g. 1×/day, 2×/day, 1×/2 days, 1×/4 days, etc) counting the number of blood vessels around the disk.
Fertilized chicken eggs were incubated horizontally at 37° C. and humidity of 60-62% and cracked into Petri dishes at embryonic day 4. Incubation was continued under the same conditions. […] Treatment was given every day for four days, then, the number of blood vessels around the treated disks was counted.

actin [2] = molecular target: T1, actin (Oryctolagus cuniculus, UniProt P68135); assay: Surface plasmon resonance (BIAcore) of actin binding; settings: actin on CM5 chip, 25° C.
Description: SPR was performed on a BIAcore 3000 instrument (BIAcore, Uppsala, Sweden). Actin was diluted in 100 mM CH3COONa pH 4.6 to a final concentration of 20 μg/ml (200 μl total) resulting in ˜1 ng immobilized actin on a CM5 BIAcore sensor chip (GE Healthcare Bio-Sciences AB) using the standard BIAcore amine coupling chemistry protocol. The CM5 chip allows four separate flow cells to be operated in the BIAcore 3000 instrument used in these experiments. Coupling is achieved by activating the surface of the sensor chips with equal volumes of 50 mM N-hydroxysuccimide (NHS)/200 mM Nethyl-N-(3-[…])-carboiimide (EDC) (BIAcore, AB, Uppsala, Sweden) to form activated carboxyl groups. An actin solution (15 μg/ml) was run over the chip for 5 min at a rate of 10 μl/min, allowing the amine groups on the protein to react with the activated esters. In the final stage of immobilization, the surface was blocked by 1M ethanol amine, pH 8.0. […] The association phase for protein or peptides binding to actin was followed for 4 min, and dissociation phases were monitored for 3 min. […] The response was monitored as a function of time (sensorgram) at 25° C. […]

actin [3] = molecular target: T1, actin; assay: Actin binding solid phase assay; settings: immobilized actin; 0-500 ng/100 μl well
Description: 96-well plates (MaxiSorp® flat-bottom 96-well plate, Fisher Scientific Inc., Fair Lawn, N.J.) were coated with 500 ng actin in 100 μl carbonate-bicarbonate buffer (pH 9.5) for 1 h at 37° C. The plate was washed once with TBS and then blocked with 3% BSA in 200 μl TBS buffer at 37° C., for 1 h. Wells were then washed once with 250 μl TBS. trT2-49, trT2-49m or each of the 29 peptides were added at 1:2 dilutions in 100 μl TBS, starting from 500 ng/well, incubated for 1 h at 37° C. and then washed three times with TBS containing 0.1% Tween-20 (TBST). Each well was then treated with 100 μl rabbit anti-trT2-49 diluted 1:500 in TBS and incubated for 1 h at 37° C. The wells were washed three times with TBST and then incubated with 100 μl goat anti-rabbit IgG-HRP (Jackson ImmunoResearch, West Grove, Pa.) diluted 1:10,000 in TBS, for 1 h at 37° C. Wells were then washed twice with TBST, and once with TBS before 100 μl substrate (1-step Ultra TMB-ELISA, Pierce, Fisher Scientific Inc.) were added. Absorbance at 655 nm was measured 10 min thereafter using a Power Wave 200 Microplate Scanning Spectrophotometer (Bio-Tek Instrument, Winooski, Vt.). Affinity was evaluated by double reciprocal plotting.

[4] = molecular target: T2, G-Actin from rabbit muscle (Oryctolagus cuniculus, UniProt P68135); assay: ELISA actin binding assay (solid-phase, immobilized actin); settings: immobilized G-actin 500 ng/well
T2 construct: G-Actin from rabbit muscle; purchased Sigma-Aldrich, St Louis, Mo; host or cells: rabbit muscle (tissue-derived)
Description: Peptides corresponding to a variety of amino acid sequences in the region of human RNASET2 comprising helix 5 and helix 6 were synthesized and assayed for actin binding in an ELISA actin binding assay.
Solid-phase ELISA for RNASET2 peptide binding to immobilized actin was performed as modified from Mejean 1987 (Biochem. J. 244: 571-577) and Mejean 1992 (Eur. J Biochem. 209: 555-562). All steps were conducted at 37° C. Immuno-96 Microwell™ solid plates (Thermo Fisher Scientific, MA) coated with 500 ng/well of G-Actin from rabbit muscle (Sigma-Aldrich, St Louis, Mo.) in 100 ul of 0.05 M carbonate buffer, pH 9.5 (Sigma-Aldrich, Mo), incubated for 1 h and washed with 250 ul/well Tris Buffered Saline (TBS) (Sigma-Aldrich). The wells were blocked with 3% bovine serum albumin (BSA, Sigma-Aldrich) in 200 ul/well TBS for another 1 hour and washed with 250 ul/well TBS. […] After an additional wash with 250 ul/well TBS, 1-Step Ultra TMB-ELISA (TMB-3,3′,5,5′ Tetramethylbenzidine) (Thermo-Scientific) was added (100 ul/well) and after 15-25 min of incubation, the reaction was read at A650 using Infinite F50-TECAN ELISA READER (TECAN, Austria). […]

HUVEC = HUVEC tube formation assay on Matrigel; type: cell-based, human; settings: peptides at 2 μM, compared to Control
Description: FIGS. 6A-6D illustrate in-vitro inhibition of angiogenesis in the HUVEC model by T2 peptides. HUVEC cells plated on Matrigel™ were exposed to 2 μM of T2 peptides A103-Q159 (SEQ ID NO: 60), K108-K133 (SEQ ID NO: 57) or K108-L123 (SEQ ID NO: 67), in addition to 1 μg/ml of angiogenin or VEGF as the angiogenic agent, as indicated. Control wells received PBS. FIG. 6B-Results were assessed by imaging software, and quantified, and expressed relative to tube formation with angiogenin or VEGF alone (100%) Column 1=angiogenin, column 2=angiogenin+SEQ ID NO: 60, column 3=angiogenin+SEQ ID NO: 57, column 4=angiogenin+SEQ ID NO: 60, Column 5=VEGF, column 6=VEGF+SEQ ID NO: 60, column 7=VEGF+SEQ ID NO: 57, column 8=VEGF+SEQ ID NO: 60. FIGS. 6C and 6D illustrate the inhibitory effect of truncated human T2 polypeptide trT2-49m (SEQ ID NO: 129) on angiogenin and VEGF induced HUVEC tube formation. […]
HUVEC (CC-2519)(fresh or commercially provided) are maintained in M199 rrrediurn supplemented with 20% FCS, 1% glutamine, 1% antibiotic-antimycotic solution, ECGF, and heparin, plated in a 96-well plate (14×10^3 cells/well) previously coated with growth factor-depleted Matrigel™ (BD Biosciences), in M199 medium containing 5% FCS and 0.005% ECGF. […] Plates are incubated (overnight), photographed and the extent of tube formation (angiogenesis) assessed.

B1: SEQ ID NO: 84: truncated RNASET2 polypeptide representing amino acids 49-232 of full length, native RNASET2 (protein)
chain: EGCNRSWPFNLEEIKDLLPEMRAYWPDVIHSFPNRSRFWKHEWEKHGTCAAQVDALNSQKKYFGRSLELYRELDLNSVLLKLGIKPSINYYQVADFKDALARVYGVIPKIQCLPPSQDEEVQTIGQIELCLTKQDQQLQNCTEPGEQPSPKQEVWLANGAAESRGLRVCEDGPVFYPPPKKTKH
Question: With B1 as the molecule, how does the “inhibition of angiogenesis (number of blood vessels around disk)” value [1] read?
Answer: effective in inhibiting angiogenesis

Question: What about the “Ka × 10^3” value (actin [2]) of the same molecule?
Answer: 1.71 ×10^3 1/Ms

Question: What about the “actin binding in solid-phase assay” value (actin [3]) of the same molecule?
Answer: effective and concentration-dependent binding of actin

Question: And the “actin binding on ELISA” value [4]?
Answer: effectively binds actin

B2: SEQ ID NO: 129: truncated version of hRNASET2 (trT2-49) missing amino acids E120-V141, expressed in E. coli (protein)
chain: EGCNRSWPFNLEEIKDLLPEMRAYWPDVIHSFPNRSRFWKHEWEKHGTCAAQVDALNSQKKYFGRSLELYRADFKDALARVYGVIPKIQCLPPSQDEEVQTIGQIELCLTKQDQQLQNCTEPGEQPSPKQEVWLANGAAESRGLRVCEDGPVFYPPPKKTKH
Question: With B2 as the molecule, how does the “inhibition of VEGF-induced tube formation” value (HUVEC; 1 μg/ml VEGF) read?
Answer: 35%

Question: And the “inhibition of angiogenin-induced tube formation” value (HUVEC; 1 μg/ml angiogenin)?
Answer: 40%

Question: What about the “Ka × 10^3” value (actin [2]) of the same molecule?
Answer: 0.50 ×10^3 1/Ms

Question: And the “actin binding in solid-phase assay” value (actin [3])?
Answer: bound actin in a concentration-dependent manner; also recorded: effective and concentration-dependent binding of actin
